Experiments:
F14Bpa-Rop [1] = molecular target: F14Bpa-Rop (UniProt P03051); assay: cross-linking
F14Bpa-Rop [2] = molecular target: F14Bpa-Rop (UniProt P03051); assay: SEC
F14Bpa-Rop [3] = molecular target: F14Bpa-Rop (UniProt P03051); assay: cross-linking + SEC
F14Bpa-Rop [4] = molecular target: F14Bpa-Rop (UniProt P03051); assay: cross-linking; remark: listed apart in the source
wild type Rop = wild type Rop (UniProt P03051); assay: SEC

stoichiometry N (F14Bpa-Rop [1])	stoichiometry N (F14Bpa-Rop [2])	stoichiometry N (F14Bpa-Rop [3])	stoichiometry N (F14Bpa-Rop [4])	stoichiometry N (wild type Rop)	Substance
4	2	4	4		F14Bpa-Rop (from UniProt P03051 1-63) (natural protein)
				2	wild type Rop (from UniProt P03051 1-63) (natural protein)
